According to US20250057951A1, “DISCERNIBLE CELL SURFACE PROTEIN VARIANTS OF CD117 FOR USE IN CELL THERAPY” (UNIVERSITÄT BASEL, priority 2021, published 2025):

Assays:
antibody Refmab #1 = assay: Octet screen: binding of CD117 D1-2-3 variants to captured Refmab #1; details: nm shift at end of association, top analyte concentration (500 nM)
Method: A more sophisticated analysis of binding to the elected variants was performed with antibody Refmab #1. Binding of Refmab #1 to wt and variants (analyte) was measured in an Octet system RED96e or R8 at 25° C. with shaking at 1,000 rpm using 1× kinetic buffer (Sartorius, PN: 18-1105). First, the elected variants were screened for their ability to bind Refmab #1 using three different concentrations of analytes. Antibody Refmab #1 was captured by Anti-Human Fc capture biosensor (AHC) (Sartorius, PN: 18-5060) for 300 s at 0.5 to 1 μg/mL. As an analyte, human CD117 wt and variants, containing only domains 1, 2 and 3 (CD117 D1-2-3), was titrated at 500 nM, 50 nM and 5 nM. Association and dissociation of the analyte to Refmab #1 was monitored for 300 s and 900 s, respectively. Reference subtraction was performed against buffer only wells. AHC tips were regenerated using 10 mM Gly-HCl pH 1.7. Data were analyzed using the Octet Data Analysis software HT 12.0. Data were fitted (when possible) to a 1:1 binding model. Kinetic rates ka and […] globally fitted. Binding level of the elected variants were compared to wild type and are shown as percent in FIG. 7. For this qualitative analysis, the binding level of the top analyte concentration at end of the association step was used.

Biotinylated Avitag-hSCF = molecular target: T1, Biotinylated Avitag-hSCF (human, UniProt P21583 26-190, limits assumed, biotinylated Avitag); assay: BLI (Octet), steady state: biotinylated SCF on streptavidin biosensor, CD117 D1-2-3 variant as analyte; KD relative to WT
T1 construct: Bought reagent; also called hSCF (Acros Biosystems SCF-H82E1)
T1 sequence (P21583 26-190 limits assumed): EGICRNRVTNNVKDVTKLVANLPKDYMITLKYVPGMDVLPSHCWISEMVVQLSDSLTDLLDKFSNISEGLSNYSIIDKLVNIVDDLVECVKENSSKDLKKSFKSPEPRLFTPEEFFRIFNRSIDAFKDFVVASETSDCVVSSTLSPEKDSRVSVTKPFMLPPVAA
Method: Domains 4 and 5 were used as a negative, non-binding control.
Association was monitored for 300 s and dissociation for 600 s. […] Reference subtraction was performed against buffer only wells. Biosensors were not regenerated and a new set of SA biosensors was used for each analyte. Data were analyzed using the Octet Data Analysis software HT 12.0. Steady state data analysis was performed due to the fast on/off nature of the interaction.

Chain of antibody Refmab #1 (as listed by the source): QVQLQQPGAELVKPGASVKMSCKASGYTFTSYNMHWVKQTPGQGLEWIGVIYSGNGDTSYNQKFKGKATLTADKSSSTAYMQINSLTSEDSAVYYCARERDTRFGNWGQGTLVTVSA
Chain of antibody Refmab #1 (as listed by the source): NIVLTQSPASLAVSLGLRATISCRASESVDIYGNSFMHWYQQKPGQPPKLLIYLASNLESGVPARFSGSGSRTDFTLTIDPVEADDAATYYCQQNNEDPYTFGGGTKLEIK

| binding to Refmab #1 compared to wild type (antibody Refmab #1) | binding result (Biotinylated Avitag-hSCF) | Molecule |
| --- | --- | --- |
|  | binds | K193M (receptor, not in the list MOLECULES; also called human CD117 D1-2-3 variant K193M) extracellular domains 1, 2 and 3: QPSVSPGEPSPPSIHPGKSDLIVRVGDEIRLLCTDPGFVKWTFEILDETNENKQNEWITEKAEATNTGKYTCTNKHGLSNSIYVFVRDPAKLFLVDRSLYGKEDNDTLVRCPLTDPEVTNYSLKGCQGKPLPKDLRFIPDPKAGIMIKSVKRAYHRLCLHCSVDQEGMSVLSEKFILKVRPAFKAVPVVSVSKASYLLREGEEFTVTCTIKDVSSSVYSTWKRENSQTKLQEKYNSWHHGDFNYERQATLTISSARVNDSGVFMCYANNTFGSANVTTTLEVVD |
|  | binds | E73G (receptor, not in the list MOLECULES; also called human CD117 D1-2-3 variant E73G) extracellular domains 1, 2 and 3: QPSVSPGEPSPPSIHPGKSDLIVRVGDEIRLLCTDPGFVKWTFEILDGTNENKQNEWITEKAEATNTGKYTCTNKHGLSNSIYVFVRDPAKLFLVDRSLYGKEDNDTLVRCPLTDPEVTNYSLKGCQGKPLPKDLRFIPDPKAGIMIKSVKRAYHRLCLHCSVDQEGKSVLSEKFILKVRPAFKAVPVVSVSKASYLLREGEEFTVTCTIKDVSSSVYSTWKRENSQTKLQEKYNSWHHGDFNYERQATLTISSARVNDSGVFMCYANNTFGSANVTTTLEVVD |
|  | binds | D121V (receptor, not in the list MOLECULES; also called human CD117 D1-2-3 variant D121V) extracellular domains 1, 2 and 3: QPSVSPGEPSPPSIHPGKSDLIVRVGDEIRLLCTDPGFVKWTFEILDETNENKQNEWITEKAEATNTGKYTCTNKHGLSNSIYVFVRDPAKLFLVVRSLYGKEDNDTLVRCPLTDPEVTNYSLKGCQGKPLPKDLRFIPDPKAGIMIKSVKRAYHRLCLHCSVDQEGKSVLSEKFILKVRPAFKAVPVVSVSKASYLLREGEEFTVTCTIKDVSSSVYSTWKRENSQTKLQEKYNSWHHGDFNYERQATLTISSARVNDSGVFMCYANNTFGSANVTTTLEVVD |
|  | binds | D121S (receptor, not in the list MOLECULES; also called human CD117 D1-2-3 variant D121S) extracellular domains 1, 2 and 3: QPSVSPGEPSPPSIHPGKSDLIVRVGDEIRLLCTDPGFVKWTFEILDETNENKQNEWITEKAEATNTGKYTCTNKHGLSNSIYVFVRDPAKLFLVSRSLYGKEDNDTLVRCPLTDPEVTNYSLKGCQGKPLPKDLRFIPDPKAGIMIKSVKRAYHRLCLHCSVDQEGKSVLSEKFILKVRPAFKAVPVVSVSKASYLLREGEEFTVTCTIKDVSSSVYSTWKRENSQTKLQEKYNSWHHGDFNYERQATLTISSARVNDSGVFMCYANNTFGSANVTTTLEVVD |
|  | binds | V120I (receptor, not in the list MOLECULES; also called human CD117 D1-2-3 variant V120I) extracellular domains 1, 2 and 3: QPSVSPGEPSPPSIHPGKSDLIVRVGDEIRLLCTDPGFVKWTFEILDETNENKQNEWITEKAEATNTGKYTCTNKHGLSNSIYVFVRDPAKLFLIDRSLYGKEDNDTLVRCPLTDPEVTNYSLKGCQGKPLPKDLRFIPDPKAGIMIKSVKRAYHRLCLHCSVDQEGKSVLSEKFILKVRPAFKAVPVVSVSKASYLLREGEEFTVTCTIKDVSSSVYSTWKRENSQTKLQEKYNSWHHGDFNYERQATLTISSARVNDSGVFMCYANNTFGSANVTTTLEVVD |
|  | binds | K193T (receptor, not in the list MOLECULES; also called human CD117 D1-2-3 variant K193T) extracellular domains 1, 2 and 3: QPSVSPGEPSPPSIHPGKSDLIVRVGDEIRLLCTDPGFVKWTFEILDETNENKQNEWITEKAEATNTGKYTCTNKHGLSNSIYVFVRDPAKLFLVDRSLYGKEDNDTLVRCPLTDPEVTNYSLKGCQGKPLPKDLRFIPDPKAGIMIKSVKRAYHRLCLHCSVDQEGTSVLSEKFILKVRPAFKAVPVVSVSKASYLLREGEEFTVTCTIKDVSSSVYSTWKRENSQTKLQEKYNSWHHGDFNYERQATLTISSARVNDSGVFMCYANNTFGSANVTTTLEVVD |
|  | binds | K193E (receptor, not in the list MOLECULES; also called human CD117 D1-2-3 variant K193E) extracellular domains 1, 2 and 3: QPSVSPGEPSPPSIHPGKSDLIVRVGDEIRLLCTDPGFVKWTFEILDETNENKQNEWITEKAEATNTGKYTCTNKHGLSNSIYVFVRDPAKLFLVDRSLYGKEDNDTLVRCPLTDPEVTNYSLKGCQGKPLPKDLRFIPDPKAGIMIKSVKRAYHRLCLHCSVDQEGESVLSEKFILKVRPAFKAVPVVSVSKASYLLREGEEFTVTCTIKDVSSSVYSTWKRENSQTKLQEKYNSWHHGDFNYERQATLTISSARVNDSGVFMCYANNTFGSANVTTTLEVVD |

Further lines, the molecule ahead of its results:

| Molecule | binding to Refmab #1 compared to wild type (antibody Refmab #1) | binding result (Biotinylated Avitag-hSCF) |
| --- | --- | --- |
| S1231: variant of human CD117, printed S1231, probably substitution S123I | strong decrease in binding |  |
| S123P: variant of human CD117 with substitution S123P (protein) QPSVSPGEPSPPSIHPGKSDLIVRVGDEIRLLCTDPGFVKWTFEILDETNENKQNEWITEKAEATNTGKYTCTNKHGLSNSIYVFVRDPAKLFLVDRPLYGKEDNDTLVRCPLTDPEVTNYSLKGCQGKPLPKDLRFIPDPKAGIMIKSVKRAYHRLCLHCSVDQEGKSVLSEKFILKVRPAFKAVPVVSVSKASYLLREGEEFTVTCTIKDVSSSVYSTWKRENSQTKLQEKYNSWHHGDFNYERQATLTISSARVNDSGVFMCYANNTFGSANVTTTLEVVDKG | particular strong decrease in binding |  |
| S123Q: variant of human CD117 with substitution S123Q (protein) QPSVSPGEPSPPSIHPGKSDLIVRVGDEIRLLCTDPGFVKWTFEILDETNENKQNEWITEKAEATNTGKYTCTNKHGLSNSIYVFVRDPAKLFLVDRQLYGKEDNDTLVRCPLTDPEVTNYSLKGCQGKPLPKDLRFIPDPKAGIMIKSVKRAYHRLCLHCSVDQEGKSVLSEKFILKVRPAFKAVPVVSVSKASYLLREGEEFTVTCTIKDVSSSVYSTWKRENSQTKLQEKYNSWHHGDFNYERQATLTISSARVNDSGVFMCYANNTFGSANVTTTLEVVDKG | strong decrease in binding |  |
| S123M: variant of human CD117 with substitution S123M (protein) QPSVSPGEPSPPSIHPGKSDLIVRVGDEIRLLCTDPGFVKWTFEILDETNENKQNEWITEKAEATNTGKYTCTNKHGLSNSIYVFVRDPAKLFLVDRMLYGKEDNDTLVRCPLTDPEVTNYSLKGCQGKPLPKDLRFIPDPKAGIMIKSVKRAYHRLCLHCSVDQEGKSVLSEKFILKVRPAFKAVPVVSVSKASYLLREGEEFTVTCTIKDVSSSVYSTWKRENSQTKLQEKYNSWHHGDFNYERQATLTISSARVNDSGVFMCYANNTFGSANVTTTLEVVDKG | strong decrease in binding |  |
| D121R: variant of human CD117 with substitution D121R (protein) QPSVSPGEPSPPSIHPGKSDLIVRVGDEIRLLCTDPGFVKWTFEILDETNENKQNEWITEKAEATNTGKYTCTNKHGLSNSIYVFVRDPAKLFLVRRSLYGKEDNDTLVRCPLTDPEVTNYSLKGCQGKPLPKDLRFIPDPKAGIMIKSVKRAYHRLCLHCSVDQEGKSVLSEKFILKVRPAFKAVPVVSVSKASYLLREGEEFTVTCTIKDVSSSVYSTWKRENSQTKLQEKYNSWHHGDFNYERQATLTISSARVNDSGVFMCYANNTFGSANVTTTLEVVDKG | strong decrease in binding |  |
| D121Y: variant of human CD117 with substitution D121Y (protein) QPSVSPGEPSPPSIHPGKSDLIVRVGDEIRLLCTDPGFVKWTFEILDETNENKQNEWITEKAEATNTGKYTCTNKHGLSNSIYVFVRDPAKLFLVYRSLYGKEDNDTLVRCPLTDPEVTNYSLKGCQGKPLPKDLRFIPDPKAGIMIKSVKRAYHRLCLHCSVDQEGKSVLSEKFILKVRPAFKAVPVVSVSKASYLLREGEEFTVTCTIKDVSSSVYSTWKRENSQTKLQEKYNSWHHGDFNYERQATLTISSARVNDSGVFMCYANNTFGSANVTTTLEVVDKG | particular strong decrease in binding |  |
| D121T: variant of human CD117 with substitution D121T (protein) QPSVSPGEPSPPSIHPGKSDLIVRVGDEIRLLCTDPGFVKWTFEILDETNENKQNEWITEKAEATNTGKYTCTNKHGLSNSIYVFVRDPAKLFLVTRSLYGKEDNDTLVRCPLTDPEVTNYSLKGCQGKPLPKDLRFIPDPKAGIMIKSVKRAYHRLCLHCSVDQEGKSVLSEKFILKVRPAFKAVPVVSVSKASYLLREGEEFTVTCTIKDVSSSVYSTWKRENSQTKLQEKYNSWHHGDFNYERQATLTISSARVNDSGVFMCYANNTFGSANVTTTLEVVDKG | particular strong decrease in binding |  |
| K193G (receptor, not in the list MOLECULES; also called human CD117 D1-2-3 variant K193G) extracellular domains 1, 2 and 3: QPSVSPGEPSPPSIHPGKSDLIVRVGDEIRLLCTDPGFVKWTFEILDETNENKQNEWITEKAEATNTGKYTCTNKHGLSNSIYVFVRDPAKLFLVDRSLYGKEDNDTLVRCPLTDPEVTNYSLKGCQGKPLPKDLRFIPDPKAGIMIKSVKRAYHRLCLHCSVDQEGGSVLSEKFILKVRPAFKAVPVVSVSKASYLLREGEEFTVTCTIKDVSSSVYSTWKRENSQTKLQEKYNSWHHGDFNYERQATLTISSARVNDSGVFMCYANNTFGSANVTTTLEVVD |  | binds |
| K193D (receptor, not in the list MOLECULES; also called human CD117 D1-2-3 variant K193D) extracellular domains 1, 2 and 3: QPSVSPGEPSPPSIHPGKSDLIVRVGDEIRLLCTDPGFVKWTFEILDETNENKQNEWITEKAEATNTGKYTCTNKHGLSNSIYVFVRDPAKLFLVDRSLYGKEDNDTLVRCPLTDPEVTNYSLKGCQGKPLPKDLRFIPDPKAGIMIKSVKRAYHRLCLHCSVDQEGDSVLSEKFILKVRPAFKAVPVVSVSKASYLLREGEEFTVTCTIKDVSSSVYSTWKRENSQTKLQEKYNSWHHGDFNYERQATLTISSARVNDSGVFMCYANNTFGSANVTTTLEVVD |  | binds |
